The nanobody polyreactivity screen of Harvey et al. (2022)

Test: yeast display, Sf9 membrane polyspecificity reagent, FACS + sequencing; frameworks hold sequencing errors
How it was run: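 Polyreactivity labels are assigned by the sorting gate from which each nanobody was recovered. The gates were low and high (top ~1%), set on anti-HA fluorescence for expression and streptavidin fluorescence for reagent binding. Before sorting, galactose-induced (36–48 hours) yeast display cells were stained for 1 hour at 4 °C with 10% biotinylated, detergent-solubilized Sf9 membrane reagent.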

Row | Sequence | polyreactivity (PSR sort gate)
1 | QVQLVESGGGLVQAGGSLRLSCAASGRIMPFYAMGWYRQAPGKERELVATISWTSDSTYYADSVKGRFTISRDNAKNTVFLQMNSLKPEDTAVYYCAREYTYTYASTVIYDHWGQGTQVTVSS | low polyreactivity
2 | QVQLVESGGGLVQAGGSLRLSCAASGRINEYYAMGWYRQAPGKERELVAAISSGGSTYYADSVKGRFTISRDNAKNTVYFQMNSLKPEDTAVYYCAAVYSSYGRRYNSWGQGTQVTVSS | high polyreactivity
3 | QVQLVESGGGLVQAGGSLRLSCAASGRIRGNVMGWYRQAPGKERELVAAISKSGGSTYYADSVKGRFTISRDNAKNTVYLQMNSLKPEDTAVYYCAAAYGQYTSYYRFGSWGQGTQVTVSS | high polyreactivity
4 | QVQLVESGGGLVQAGGSLRLSCAASGRISGVNAMGWYRQAPGKERELVATISGSGGRTYYADSVKGRFTISRDNAKNTVYLQMNSLKPEDTAVYYCNTLVQRGGYFSRRFDYWGQGTQVTVSS | low polyreactivity
5 | QVQLVESGGGLVQAGGSLRLSCAASGRISGYNMGWYRQAPGKERELVAAISNGGSTNYADSVKGRFTISRDNAKNTVYLQMNSLKPEDTAVYYCNRRVPYSFYSRGYYYWGQGTQVTVSS | high polyreactivity
6 | QVQLVESGGGLVQAGGSLRLSCAASGRISPKNAMGWYRQAPGKERELVATIRKIGGRTYYADSVKGRFTISRDNAKNTVYLQMNSLKPEDTAVYYCATDFAPSYYPDRFDYRGQGTQVTVSS | low polyreactivity
7 | QVQLVESGGGLVQAGGSLRLSCAASGRISPKNAMGWYRQAPGKERELVATIRKIGGRTYYADSVKGRFTISRDNAKNTVYLQMNSLKPEDTAVYYCATDFAPSYYPDRFDYWGQGTQVTVSW | low polyreactivity
8 | QVQLVESGGGLVQAGGSLRLSCAASGRISPKNAMGWYRQAPGKERELVATIRKIGGRTYYADSVKGRFTISRDNAKNTVYLQMNSLKPEDTAVYYCATDFAQSYYPDRFDYWGQGTQVTVSS | low polyreactivity
9 | QVQLVESGGGLVQAGGSLRLSCAASGRISRFYAMGWYRQAPGKERELVAGIRSGDSTNYADSVKGRFTISRDNAKNTVYLQMNSLKPEDTAVYYCAAVVFSDGRYGRANRMYYWGQGTQVTVSS | high polyreactivity
10 | QVQLVESGGGLVQAGGSLRLSCAASGRISRGNAMGWYRHAPGKEREFVAAISWSGDGTYYADSVKGRFTISRDNAKNTVYLQMNSLKPEDTAVYYCADGATPRYSKYDYWGQGTQGTVSS | low polyreactivity
11 | QVQLVESGGGLVQAGGSLRLSCAASGRISRIYAMGWYRQAPGKERELVAAIRGRGGSTYYADSVKGRFTISRDNAKNTVYLQMNSLKPEVTAVYYCAADGWARYEYWGQGTQVTVSS | high polyreactivity
12 | QVQLVESGGGLVQAGGSLRLSCAASGRISRNYAMGWYRQAPGKERELVAAINRGGSTYYADSVKGRFTISRDNAKNTVYLQMNSLKPEDTAVYYCAARYPNQYDYWGQGTQVTVSS | high polyreactivity
13 | QVQLVESGGGLVQAGGSLRLSCAASGRISRSNTMGWYRQAPGKERELVAAISRGGGSTYYADSVKGRFTISRDNAKNTVYLQMKSLKPEDTAVYYCAKRSAITGYEYWGQGTQVTVSS | high polyreactivity
14 | QVQLVESGGGLVQAGGSLRLSCAASGRISSVYAMGLYRQAPGKERELVAGITWSDARTYYADSVKGRFTISRDNAKNTVYLQMNSLKPEDTAVYYCAADYYYYERDYWGQGTQVTVSS | low polyreactivity
15 | QVQLVESGGGLVQAGGSLRLSCAASGRISVANAMGWYIQAPGKERELVARISEGVGSTYYADSVKGRFTISRDTAKNTVYLQMNSLKPEDTAVYYCAAYQDYVYSESLFSVSARMYYWGQGTQVTVSS | low polyreactivity
16 | QVQLVESGGGLVQAGGSLRLSCAASGRISVVNAMGWYRQAPGKERELVATINRGGSTYADSVKGRFTISRDNAKNTVYLQMNSLKPEDTAVYYCAARTFRISRMDYWGQGTQVTVSS | high polyreactivity
17 | QVQLVESGGGLVQAGGSLRLSCAASGRIVEGNVMGWYRQAPGKERELVAGISSGGSTTYADSVKGRFTISRDNAKNTVYLQMNSLKPEDTAVYYCAASRKRFRHSSYRFYYCGQGTQVTVSS | high polyreactivity
18 | QVQLVESGGGLVQAGGSLRLSCAASGRIVKFYDMGWYRQAPGKEREFVAAISRRGSSTYYADSVKGRFTISRDNAKNTVYLQMNSLKPEDTAVYYCAADWTFGAIGYYYWGHGTQVTVSS | high polyreactivity
19 | QVQLVESGGGLVQAGGSLRLSCAASGRIVKYAMGWYRQAPGKERELVAAISGSGGTTYYADSVKGRFTISRDNAKNTVYLQMNSLKPEETAVYYCAASRPRPPSSRRMDYWGQGTQVTVSS | high polyreactivity
20 | QVQLVESGGGLVQAGGSLRLSCAASGRIVWYAMGWYRQAPGKERELVAAINWSGGSTYYADSVKGRFTISRDNAKNTVYLQMNSLKPEDTAVYYCAADVRNYWLEYEYWGQGTQVTVSS | low polyreactivity
21 | QVQLVESGGGLVQAGGSLRLSCAASGRIVYLNAMGWYRQPPGKERELVAAINTSGDSTYYADSVKGRFTISRDNAKNTVYLQMNSLKPVDTAVYYCAAYVIGPDQFIYDYWGQGTQVTVSS | low polyreactivity
22 | QVQLVESGGGLVQAGGSLRLSCAASGRIYCKYAMGRYRQAPGKERELVAGISRGAGRTYYADSVKGRFTISRDNAKNTVYLQMNSLKPADTAVSYCAAVPSYHSTSPFYYWGQGTQVTVSS | high polyreactivity

Row | Sequence | polyreactivity (PSR sort gate)
23 | QVQLVESGGGLVQAGGSLRLSCAASGRIYGFNTMGWYRQAPGKERELVAAITTSGVSTYYADSVKGRFTISRDNAKNTVYLQMNSLKPEDTAVYYCAARWYRTGPYKRRDYWGQGTQVTVSS | high polyreactivity
24 | QVQLVESGGGLVQAGGSLRLSCAASGRIYINNAMGWYRQAPGKDREFVAAITSGGRTYYADSVKGRFTISRDNAKYTVYLQMNSLKPEDTAVYYCAPRYYRQYTRHYGYGYWGQGTQVTVSS | high polyreactivity
25 | QVQLVESGGGLVQAGGSLRLSCAASGRIYPYYAMGWYRQAPGKERELVAAITTRGGSTYYADSVKGRFTISRDNAKNTVYLQMNSLKPEDTAVYYCAAVTFGRMEYWGQGTQVTVSS | low polyreactivity
26 | QVQLVESGGGLVQAGGSLRLSCAASGRIYPYYDMGSYRPAPGKERELVAAITWNGGSTYYADSVKGRFTISRDYAKNTVYLQMNSLKPEDTAVYYCAVEPYYYGEDYWGQGTQVTVSS | low polyreactivity
27 | QVQLVESGGGLVQAGGSLRLSCAASGRIYRYAMGWYRQAPGKERELVAAISGGGGRTYYADSVKGRFTISRDNAKNTFYLQLNSLKPEVTAVYDCAVDPYFYYYGDYYFDYWGQGTQVTVSS | high polyreactivity
28 | QVQLVESGGGLVQAGGSLRLSCAASGRIYRYAMGWYRQAPWKERELVASISRRGGSTYYADSVKGRFTISRDNAKNTVYVQMNSLKPEDTALYSCNAYGYSFCYDYWGHGTQVTVSS | high polyreactivity
29 | QVQLVESGGGLVQAGGSLRLSCAASGRIYWLYAMGWYRQAPGKERELVAAITGIGGSTYYADSVKVRFTISRDNAKNTVYLQMNSLKPEDTAVYYCAARNPASTAWMNYWGQGTQVNVSS | low polyreactivity
30 | QVQLVESGGGLVQAGGSLRLSCAASGRLFKIYAMGWYRQAPGKERELVATISSGGRTNYADSVKGRFTISRDNAKNTVYLQMNSLKPEDTAVYYCNAGARVLYETESFDYWGQGIQVTVSS | low polyreactivity
31 | QVQLVESGGGLVQAGGSLRLSCAASGRMFHIYAMGWYRQAPGKERELVAGITTSGGSTYYADSVKGRFTISRDNAKNTVYLQMNSLKPEDTSVDYCARDGLWWCGLTKRWWEFYYWGQGTQVTVSS | low polyreactivity
32 | QVQLVESGGGLVQAGGSLRLSCAASGRMFYYYVMGWYRQAPGKESELVAVIDWSGGSTYYADSLKGRFTISRDTAKNTVYLQMNSLKPEDTAVYYCARVPYGNPNGNTPYGDNRYNSWGQGTQVTVSS | low polyreactivity
33 | QVQLVESGGGLVQAGGSLRLSCAASGRNFDWYAMGWYRQAPGKERELVAAISTSGANTYYADSVKGRFTISRDNAKNTVYLQMNSLKPEDTAVYYCATDPYQPYEGDYWGQGTLVTVSS | low polyreactivity
34 | QVQLVESGGGLVQAGGSLRLSCAASGRNFDYYTMGWYRQAPGKERELVARIRRSAGTTYYADSVKGRFTISRDNAKNPVYCQMNSLIPEDTAVYYCNVVPYFKYGYWGQGTQVTGSS | low polyreactivity
35 | QVQLVESGGGLVQAGGSLRLSCAASGRNFFTYAMGWYRQAPGKERELVAAIDRSGTSTNYADSVKGRFTISRDNANNTVYLHMHSLKPEDTAVYYCAARPNPYYDEMDYWGQGTQVTVSS | low polyreactivity
36 | QVQLVESGGGLVQAGGSLRLSCAASGRNFGLNAMGWYRQAPGKERELVAAIDQGDGITYYADSVKGRFTISRDNAKNTVYLQMNSLKTEDTAVYYCAAEVSYKEIYQYYWIYPAYNYWGQGTQVTVSS | high polyreactivity
37 | QVQLVESGGGLVQAGGSLRLSCAASGRNFGYYVMGWYRQAPGKERELVAAIRSSADSTYYADSVKGRFTISRDNAKNTVYLQMNSLKPEDTAVYYCAAQSPAYYTKCYWGQGTQVTVSS | low polyreactivity
38 | QVQLVESGGGLVQAGGSLRLSCAASGRNFHRYAMGWYRQAPGKERELVATIRSGGGTYYADSVKGRFTISRDNAKNTVYLQMNSLKPEDTAVYDCNAQSSYSYFSGYDYWGQGTQVTVSS | low polyreactivity
39 | QVQLVESGGGLVQAGGSLRLSCAASGRNFKYYAMGWYRPAPGKERELVAAISWSGGSTYYADSVKGRFTISRDNAKNTVYLQMNSLKPEDTAVYYCATYGGLTKFRLAYDYWGQGTQVTVSS | high polyreactivity
40 | QVQLVESGGGLVQAGGSLRLSCAASGRNFPVNAMGWYRQAPGKERELVAAISTTGARTYYADSVKGRFTISRDNAKNTVYLQMNSLKPEDTAVYYCAAKQFSVTLSNYWGQGTQVTVSS | low polyreactivity
41 | QVQLVESGGGLVQAGGSLRLSCAASGRNFRVNAMGWYTQAPGKERELVAAISWIGGRTYYADSVKGRFTISRDNAKNTVYLQMNSLKPEDTAVYYCAAGTRRYYYWKYDYWGQGTQVTVSS | high polyreactivity
42 | QVQLVESGGGLVQAGGSLRLSCAASGRNFTDNDMGWYIQAPGKEMDLVAGINWSSGSTYYADSVKGRFTISRDNAKNTVYLQMNSLKTEDTAVYYCNALGYWRSTVHFVVGEVDYWGQGTQVTLSS | low polyreactivity
43 | QVQLVESGGGLVQAGGSLRLSCAASGRNFTRNAMGWYRQAPGKEREFVAAISWSGGSTYYADSVKGRFTLSRDNAKNTVYVQMNSLKPEDTAVYYCAAKNCGGYVSWYDYWGQGTQVTVSS | low polyreactivity
